We go through 6 molecules from patent publication US8598320B2, “Anti-PCSK9 and methods for treating lipid and cholesterol disorders” (Merck Sharp & Dohme Corp., priority 2007, dated 2013).

The target in one experiment is PCSK9/LDLR interaction (Homo sapiens, UniProt Q8NBP7). Put plainly: Alphascreen binding assay: inhibition of PCSK9/LDLR interaction (Example 3). From the text:
An Amplified Luminescent Proximity Homogeneous Assay (ALPHA, Perkin-Elmer; Waltham, Mass.) capable of directly determining the interaction between PCSK9-FLAG and a putative binding partner was used to determine the effect of anti-PCSK9 antibodies on this interaction. This technique required that “donor” and “acceptor” beads be brought into proximity via protein-protein interaction, resulting in increased luminescence (Ullman et al., Proc. Nat. Acad. Sci. (1994) 91:5426-5430). In the basic assay, LDL receptor binding to PCSK9 was determined as follows: 5 μl of recombinant receptor at the appropriate concentrations was incubated with 2.5 μl PCSK9-FLAG (1.4 μg/ml, 30 min). About 2.5 μl of biotinylated anti-Flag-M2 antibody (1.8 μg/ml) was added and the mixture incubated for 1 hour. Afterward 5 μl of streptavidin donor bead and nickel chelate acceptor bead (1:1 mixture) was added and the assay incubated overnight. AlphaScreen signal (counts per second) was analyzed using an EnVision microplate reader (Perkin-Elmer). All data points were determined in triplicate. Assays were carried out at 23° C. in buffer containing 25 mM HEPES, 0.1 M NaCl, pH 7.4, 0.1% BSA. The inhibition assays were determined similarly with slight adjustments to assay volumes and protein concentrations. Briefly, 5 μl of 1.25 μg/ml of PCSK9-Flag and 1.25 μg/ml of His-tagged LDL receptor was incubated with 2.5 μl of antibody at the appropriate concentrations for 30 minutes followed by the addition of 2.5 μl of anti-Flag-BioM2 (1.8 μg/ml) and a 1 hour incubation.
On the technique in general: Alpha assays give light when donor and acceptor beads are brought close together.

Experiment [1] concerns the target T1, PCSK9 (Homo sapiens, UniProt Q8NBP7). Put plainly: In-cell western: inhibition of PCSK9-mediated LDLR degradation in HepG2 cells. The arrangement: The protein was added exogenously to HepG2 cells; key to Relative level of inhibition of LDLR degradation observed: Greater number of + symbols indicates a greater level of inhibition relative to other treatments.; ++: Greater number of + symbols indicates a greater level of inhibition relative to other treatments.; +++: Greater number of + symbols indicates a greater level of inhibition relative to other treatments. It is filed as cell-based. The settings on record: for Relative level of inhibition of LDLR degradation observed: PCSK9 100 nM, 18 hours, LDLR normalized to β-actin. The method, then: The 75B9, 77D10, 11B5, 22D11, 1F11/1G11 and 29C10 antibodies were evaluated in an in-cell western assay for their ability to inhibit the degradation of the LDL receptor by PCSK9 in HepG2 cells.
In-cell western was performed to quantitate anti-PCSK9 antibody inhibition of PCSK9-mediated LDLR degradation. HepG2 cells were seeded in 384-well collagen I coated plates and treated with anti-PCSK9 antibody and/or PCSK9 (100 nM) for 18 hours. Detection of LDLR and β-actin was performed according to the manufacturer's protocol (Li-Cor Biosciences; Lincoln, Nebr.) using the antibodies described above in conjunction with IRDye 800CW goat anti-rabbit (Li-Cor) and IRDye 680 goat anti-mouse (Li-Cor). The assay was read on an Odyssey infrared imaging system (Li-Cor) and the signal for LDLR protein in each well normalized to β-actin content.

The target of experiment [2] is T1, PCSK9. Put plainly: In vivo inhibition of liver LDLR degradation in mice (Western blot). The settings on record: for LDLR/GAPDH / LDLR (band intensity): liver, individual mice 107-110; for LDLR (band intensity): 400 μg antibody i.p., 10 μg human PCSK9 i.v.; for Mean LDLR/GAPDH: Antibody and PCSK9 group; for % Change: mean LDLR/GAPDH vs. Saline only control. Also noted: host or cells: Exogenous protein injected into male C57BL/6J mice. How it is done: (§1) The ability of an anti-PCSK9 antibody (1F11/1G11) to inhibit LDL receptor degration in mice was evaluated in these assays along with the ability of the antibodies to modulate cholesterol levels.
(§2) Time-0: Male C57BL16j mice were injected, intraperitoneal, with 400 μg of anti-human PCSK9 Antibody, 1F11/1G11. • Time-2 hours: Mice were then injected, intravenously, with 10 μg of human PCSK9 Protein. • Time-4 hours: Mice were terminated and plasma and liver samples were collected. Analysis:
Protein levels of Liver LDL Receptor were determined by Western Blot. 40 μg of each liver homogenate was separated on an Invitrogen 4-12% NuPAGE gel, transferred to PVDF membrane and incubated with goat anti-mouse LDL receptor antibody (rabbit anti-GAPDH antibody was used as a control for equal loading). Membranes were then incubated with corresponding HRP-linked antibodies and visualization was accomplished with high performance chemiluminescence film. Band intensities were quantified using ImageQuant 5.2 software.
LDL receptor levels were expressed in Arbitrary Units (AU) as a ratio of LDL receptor band intensity to GAPDH band intensity. Two separate analyses of the data are presented, […]

Experiment [3] addresses T1, PCSK9. The experiment in a line: Plasma cholesterol in mice injected with human PCSK9. Conditions: Male C57BL16j mice; 400 μg antibody i.p., 10 μg human PCSK9 i.v. at 2 hours; plasma at 4 hours. It counts as in vivo. The arrangement: host or cells: Exogenous protein injected into male C57BL/6J mice. How it is done:
as §1, §2
Plasma lipoprotein profiles of individual mice (0.1 mL plasma) were determined by fast protein liquid chromatography (FPLC) with a Pharmacia Superose 6 column. FPLC fraction cholesterol levels were determined using Wako Cholesterol Enzymatic colorimetric method.

“And” between values parts separate entries of the source, which are not always exact repeats. Equal values may be shown once. Marks after values point to notes of the source that are not given here.

Sequence of PCSK9/LDLR interaction (Q8NBP7 153-692): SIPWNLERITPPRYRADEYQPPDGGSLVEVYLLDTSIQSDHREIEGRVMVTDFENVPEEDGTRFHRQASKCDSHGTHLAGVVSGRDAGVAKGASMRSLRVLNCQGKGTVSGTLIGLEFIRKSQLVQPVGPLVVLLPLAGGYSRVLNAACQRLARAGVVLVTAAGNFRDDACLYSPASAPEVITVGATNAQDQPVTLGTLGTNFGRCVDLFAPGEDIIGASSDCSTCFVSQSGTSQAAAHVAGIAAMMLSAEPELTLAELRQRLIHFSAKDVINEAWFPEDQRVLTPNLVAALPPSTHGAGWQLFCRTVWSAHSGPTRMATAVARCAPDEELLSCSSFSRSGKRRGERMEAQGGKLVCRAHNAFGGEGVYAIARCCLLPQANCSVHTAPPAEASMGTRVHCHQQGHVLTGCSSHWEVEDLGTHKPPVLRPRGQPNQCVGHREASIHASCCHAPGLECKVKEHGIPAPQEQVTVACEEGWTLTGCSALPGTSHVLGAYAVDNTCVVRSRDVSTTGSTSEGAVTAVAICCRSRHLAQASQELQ
Sequence of PCSK9/LDLR interaction (Q8NBP7 31-152 partner limits assumed): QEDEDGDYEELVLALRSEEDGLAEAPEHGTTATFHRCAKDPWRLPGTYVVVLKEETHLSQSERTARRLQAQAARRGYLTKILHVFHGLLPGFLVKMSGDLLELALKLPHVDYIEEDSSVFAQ
T1 sequence (Q8NBP7 153-692): as the sequence (Q8NBP7 153-692) above

B1: 22D11: anti-human PCSK9 antibody (IgG1); heavy chain SEQ ID NO: 42, light chain SEQ ID NO: 46 (antibody, listed as Mus musculus, V domains shown)
VH: EVQLVDSGGGLVQPGRSLKLSCAASGFTFSNHDMAWVRQAPTKGLEWVASITPSGGTTYYRDSVEGRFTVSRDNVKSSLHLQMDSLTSEDTATYYCARQNYYDGSYYYGLYYFDYWGQGVMVTVSS
VL: DVLMTQTPVSLPVSLGGQVSISCRSSQSLVYSDGNTYLHWYLQKPGQSPQLLIYRVSNRFSGVPDRFSGSGSGTDFTLKISRVEPEDLGLYYCLQSTHFPPTFGSGTKLEIKRA
Regarding B1, the “Inhibition of PCSK9/LDL receptor interaction (in words)” value in the experiment with PCSK9/LDLR interaction was “effectively inhibit interaction between PCSK9 and the LDL receptor”. Further, in the experiment with PCSK9 [1], the “Inhibition of PCSK9-mediated LDL receptor degradation (in words)” value was “inhibit PCSK9-mediated LDL receptor degradation” and the “Relative level of inhibition of LDLR degradation observed” value is reported as “+”.

B2: 1F11/1G11: mouse anti-human PCSK9 antibody (IgG2a); heavy chain SEQ ID NO: 50, light chain SEQ ID NO: 54 (antibody, listed as Mus musculus, V domains shown)
VH: EVQLQQSGPELVKPGASVKISCKVSGYTFTDYYMNWVKQSHGKSLEWIGDINPNNGGAIYNQKFKGKATLTVDKSSSIAYMELRSLTSEDSAVYYCTSGIITEIAEDFWGQGTTLTVSS
VL: DIVMTQSQKFMSTSVGDRVSVTCKASQNVGTNVVWYQQKPGQSPKALIHSASYRYSGVPDRFKGSGSGTDFTLTITNVQSEDLAGFFCQQYKTYPYTFGGGTQLEIKRA
As for B2, in the experiment with PCSK9/LDLR interaction, the “Inhibition of PCSK9/LDL receptor interaction (in words)” value was “effectively inhibit interaction between PCSK9 and the LDL receptor”. In the experiment with PCSK9/LDLR interaction (450 nM antibody, relative to the assay with no antibody added), the “% inhibition at 450 nM of antibody” value is reported as 88* %. In addition, the “Inhibition of PCSK9-mediated LDL receptor degradation (in words)” value with PCSK9 [1] is on record as “inhibit PCSK9-mediated LDL receptor degradation”. For the same molecule, the “Relative level of inhibition of LDLR degradation observed” value with PCSK9 [1] was “+++”. Further, the LDLR/GAPDH is 0.272 AU and 0.278 AU and 0.262 AU and 0.128 AU in the experiment with PCSK9 [2] (Table 7, lightest exposure of LDLR panel vs. GAPDH panel); 0.439 AU and 0.396 AU and 0.426 AU and 0.249 AU in the experiment with PCSK9 [2] (Table 8, darker exposure of LDLR panel vs. lightest GAPDH panel). The “LDLR (band intensity)” value with PCSK9 [2] (Table 7, lightest exposure of LDLR panel) was 13714 and 13766 and 12508 and 5977; with PCSK9 [2] (Table 8, darker exposure of LDLR panel) it was 19883 and 18057 and 18642 and 10669. Besides, the “Mean LDLR/GAPDH” value with PCSK9 [2] (Table 7, lightest exposure) is given as 0.235 AU; with PCSK9 [2] (Table 8, darker exposure) it was 0.377 AU. In addition, the “% Change” value with PCSK9 [2] (Table 7, lightest exposure) is recorded as −48.0%; with PCSK9 [2] (Table 8, darker exposure), −35.2%. Besides, the “Plasma total cholesterol level” value with PCSK9 [3] was 72.05 mg/dL.

B3: 77D10: mouse anti-human PCSK9 antibody (IgG2b); heavy chain SEQ ID NO: 26, light chain SEQ ID NO: 30 (antibody, listed as Mus musculus, V domains shown)
VH: EVQLQQSGAELVRSGASVKLSCTTSGFNIKDYYIHWVKQRPEQGLEWIGWIDPENGDTEYAPKFQGKATMTADTSSNTAYLQLSSLTSADTAVYYCNAYYRYDDGTWFPYWGQGTLVTVSA
VL: DIQLTQSPASLSASVGETVTITCRASGNIHSYLAWYQQKQGKSPQFLVDNAKTLPDGVPSRFSVSGSGTQYSLKINSLQPEDFGTYYCQHFWNTPWTFGGGTKLEIKRA
For the molecule B3, the “Inhibition of PCSK9/LDL receptor interaction (in words)” value in the experiment with PCSK9/LDLR interaction was “effectively inhibit interaction between PCSK9 and the LDL receptor”. In the experiment with PCSK9 [1], the “Inhibition of PCSK9-mediated LDL receptor degradation (in words)” value is “inhibit PCSK9-mediated LDL receptor degradation” and the “Relative level of inhibition of LDLR degradation observed” value is “++”.

B4: 75B9: mouse anti-human PCSK9 antibody (IgG2a); heavy chain SEQ ID NO: 18, light chain SEQ ID NO: 22 (antibody, listed as Mus musculus, V domains shown)
VH: EVQLQQSGADLVKPGASVKLSCTASGFNIKDTYIHWVKQRPEQGLEWIGRIDPANGHTEYDPKFQGRATLTTDTSSNTAYLQLFSLTSEDSAVYFCARSYYGSIFAYWGQGTLVTVSA
VL: QIVLTQSPAIMSASPGEKVTISCSASSSVSYLFWYQQKPGSSPKPWIFRTSYLASGVPARFSGSGSGTSFSLTISSMEAEDAATYYCHQYHTYPPTFGGGTKLEIKRA
Turning to B4, the “Inhibition of PCSK9/LDL receptor interaction (in words)” value with PCSK9/LDLR interaction was “effectively inhibit interaction between PCSK9 and the LDL receptor”. Further, in the experiment with PCSK9 [1], the “Inhibition of PCSK9-mediated LDL receptor degradation (in words)” value was “inhibit PCSK9-mediated LDL receptor degradation” and the “Relative level of inhibition of LDLR degradation observed” value is recorded as “++”.

B5: 11B5: mouse anti-human PCSK9 antibody (IgG2a); heavy chain SEQ ID NO: 10, light chain SEQ ID NO: 14 (antibody, listed as Mus musculus, V domains shown)
VH: EVQLQQSGAELVKPGASVTLSCTASGFNIKDTYMHWVNQRPEQGLVWIGRIDPANGHTEYDPKFQDKATITTDTSSNTAYLHLSSLTSGDTAVYYCARSYFGSIFAYWGQGTLVTVSA
VL: QIVLTQSPAIMSASPGEKVTISCSASSSVSYLYWYQQKPGSSPKPWIFRSSHRASGVPARFSGSGSGTSYSLTISSMEAEDAATYYCHQYQSYPPTFGGGTKLEIKRA
With B5, the “Inhibition of PCSK9/LDL receptor interaction (in words)” value with PCSK9/LDLR interaction was “effectively inhibit interaction between PCSK9 and the LDL receptor”. Further, in the experiment with PCSK9 [1], the “Inhibition of PCSK9-mediated LDL receptor degradation (in words)” value was “inhibit PCSK9-mediated LDL receptor degradation” and the “Relative level of inhibition of LDLR degradation observed” value is given as “++”.

B6: 29C10: mouse anti-human PCSK9 antibody (IgG2a); heavy chain SEQ ID NO: 34, light chain SEQ ID NO: 38 (antibody, listed as Mus musculus, V domains shown)
VH: EVLLQQSVAELVRPGASVRLSCTASGFNIKDTYIHWVRQRPEQGLEWFGWIDPANGYTKYAPNFQGKATLTTDTSSNTAYLHLSSLTSEDSAIYYCARGYYRYYSLDYWGQGTSVTVSS
VL: DIQMTQTTSSLSASLGDRVTISCRASQDISNYLNWYQQKPDGTVKLLIYYSSRLHSGVPSRFSGRGSGTDYSLTISTLEQEDIATYFCQQGKTLPLTFGAGTKLELKRA
With B6, the “Inhibition of PCSK9/LDL receptor interaction (in words)” value in the experiment with PCSK9/LDLR interaction was “effectively inhibit interaction between PCSK9 and the LDL receptor”. Further, in the experiment with PCSK9 [1], the “Inhibition of PCSK9-mediated LDL receptor degradation (in words)” value is reported as “inhibit PCSK9-mediated LDL receptor degradation” and the “Relative level of inhibition of LDLR degradation observed” value is given as “+”.
